Measured values: paper PMC1277818, “Substrate specificity analysis of protein kinase complex Dbf2-Mob1 by peptide library and proteome array screening” (BMC Biochemistry, 2005)

T1: FHHDbf2-H6Mob1TM9 (Saccharomyces cerevisiae, UniProt P22204+P40484)
T1 construct: made in house; host or cells: Hi5 insect cells (baculovirus)
T1 sequence (P22204 1-572): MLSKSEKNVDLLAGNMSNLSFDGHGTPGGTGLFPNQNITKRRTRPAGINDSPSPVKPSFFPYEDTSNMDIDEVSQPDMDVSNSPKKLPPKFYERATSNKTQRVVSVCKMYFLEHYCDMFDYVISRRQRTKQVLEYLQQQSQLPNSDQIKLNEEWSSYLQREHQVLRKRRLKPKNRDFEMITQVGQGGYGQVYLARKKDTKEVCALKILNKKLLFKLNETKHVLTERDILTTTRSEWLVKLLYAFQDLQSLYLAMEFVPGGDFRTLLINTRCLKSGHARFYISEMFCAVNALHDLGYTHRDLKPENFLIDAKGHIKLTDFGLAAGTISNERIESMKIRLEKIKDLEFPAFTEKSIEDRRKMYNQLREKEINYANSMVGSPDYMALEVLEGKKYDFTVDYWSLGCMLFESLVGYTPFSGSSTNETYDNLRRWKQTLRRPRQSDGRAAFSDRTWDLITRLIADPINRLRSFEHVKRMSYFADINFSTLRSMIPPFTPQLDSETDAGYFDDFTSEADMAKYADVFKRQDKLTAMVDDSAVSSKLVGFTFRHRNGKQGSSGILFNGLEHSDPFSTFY
T1 sequence (P40484 1-314 partner): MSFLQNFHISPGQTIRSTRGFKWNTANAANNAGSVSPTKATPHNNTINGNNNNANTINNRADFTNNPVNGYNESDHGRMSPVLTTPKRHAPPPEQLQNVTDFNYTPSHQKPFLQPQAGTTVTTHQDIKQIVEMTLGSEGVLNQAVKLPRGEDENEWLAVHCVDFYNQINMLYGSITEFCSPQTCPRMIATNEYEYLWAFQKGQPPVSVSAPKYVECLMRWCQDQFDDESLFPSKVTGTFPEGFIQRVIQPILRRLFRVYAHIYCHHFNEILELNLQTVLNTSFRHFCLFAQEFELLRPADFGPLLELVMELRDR


Experiments:
[1] = tested on: kinase-inactive FHHDbf2(N305A)-H6Mob1TM9; assay: Kinase assays of immunoprecipitated TAP-tagged proteins with the kinase-inactive complex; type: biochemical, Saccharomyces cerevisiae; details: protein on IgG sepharose beads, ~13 ng Dbf2, 2 μCi [γ-32P]ATP, 30 min, room temperature, SDS-PAGE, autoradiography
FHHDbf2-H6Mob1TM9 [2] = target: T1, FHHDbf2-H6Mob1TM9; assay: Yeast proteome chip assay; type: biochemical; details: [γ-33P]ATP, chips in duplicate
Procedure, shortened: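 GST-tagged yeast proteins (~4,400 strains) spotted on proteome microarrays, probed in duplicate with FHHDbf2-H6Mob1TM9 in DKB plus [γ-33P]ATP; kinase-dead Dbf2(N305A) and kinase-free buffer served as controls. Positives: 3 of 4 spots ≥2 SD above background, fourth ≥1.5 SD.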

FHHDbf2-H6Mob1TM9 [3] = target: T1, FHHDbf2-H6Mob1TM9; assay: Kinase assays of immunoprecipitated TAP-tagged proteins; type: biochemical; details: protein on IgG sepharose beads, ~13 ng Dbf2, 2 μCi [γ-32P]ATP, 30 min, room temperature, SDS-PAGE, autoradiography
Description: TAP-tagged strains were obtained for 22 of the 25 top candidates. TAP-tagged alleles for three of the genes (YJL108C, YBR285W, and YBR108W) were not available, and therefore these candidates were not subjected to further analysis. Asynchronous cultures of the 22 TAP-tagged strains were grown and the TAP-tagged proteins immunoprecipitated with IgG sepharose and analyzed by Western blotting (Figure 2A). Candidates were determined to be phosphorylated if a radioactive signal was detected at the molecular weight predicted for the tagged protein. […] The 17 TAP-tagged proteins that were expressed and purified were used in Dbf2-Mob1 kinase assays (Figure 2B). Of the 17, 10 were determined to be phosphorylated.
The TAP-tagged proteins were immunoprecipitated with IgG sepharose beads from asynchronous cultures, fractionated on SDS-PAGE and immunoblotted with anti-TAP. […] (B) The TAP-tagged proteins expressed in (A) were treated with ^FHHDbf2-^H6Mob1^TM9 in the presence of [γ-^32P]ATP, fractionated on SDS-PAGE and detected by autoradiography.
Yeast strains containing TAP-tagged genes (Open Biosystems) were grown to OD600 ~2.0 in 25 mL of YPD. […] Immunoprecipitated TAP-tagged proteins were analyzed by SDS-PAGE and detected by Western blotting using the primary antibody anti-TAP (Open Biosystems) followed by goat anti-rabbit horseradish peroxidase (HRP)-conjugate (Bio-Rad), and ECL. […]

[4] = Table 3, GST fusion proteins on proteome chip, computer analysis
[5] = Table 4, the 25 proteins with highest signal relative to protein amount

Molecule	Phosphorylation of TAP-tagged protein by kinase-inactive Dbf2(N305A)-Mob1 [1]	Slide Signal (after normalization) (FHHDbf2-H6Mob1TM9 [2]; [4])	Slide Signal (after normalization) (FHHDbf2-H6Mob1TM9 [2]; [5])	Phosphorylation of TAP-tagged protein by Dbf2-Mob1 (FHHDbf2-H6Mob1TM9 [3])
YOR362C: GST fusion yeast protein on proteome chip (protein, UniProt P21242 2-288, looked up, GST tag, GST fusion yeast protein on proteome chip) Probable proteasome subunit …: TSIGTGYDLSNSVFSPDGRNFQVEYAVKAVENGTTSIGIKCNDGVVFAVEKLITSKLLVPQKNVKIQVVDRHIGCVYSGLIPDGRHLVNRGREEAASFKKLYKTPIPIPAFADRLGQYVQAHTLYNSVRPFGVSTIFGGVDKNGAHLYMLEPSGSYWGYKGAATGKGRQSAKAELEKLVDHHPEGLSAREAVKQAAKIIYLAHEDNKEKDFELEISWCSLSETNGLHKFVKGDLLQEAIDFAQKEINGDDDEDEDDSDNVMSSDDENAPVATNANATTDQEGDIHLE	not its kinase inactive form	0.9895	0.9895	phosphorylated by Dbf2-Mob1
YDR226W: GST fusion yeast protein on proteome chip (protein, UniProt P07170 3-222, looked up, GST tag, GST fusion yeast protein on proteome chip) Adenylate kinase: SSESIRMVLIGPPGAGKGTQAPNLQERFHAAHLATGDMLRSQIAKGTQLGLEAKKIMDQGGLVSDDIMVNMIKDELTNNPACKNGFILDGFPRTIPQAEKLDQMLKEQGTPLEKAIELKVDDELLVARITGRLIHPASGRSYHKIFNPPKEDMKDDVTGEALVQRSDDNADALKKRLAAYHAQTEPIVDFYKKTGIWAGVDASQPPATVWADILNKLGKD	not its kinase inactive form	3.1016	3.1016	phosphorylated by Dbf2-Mob1
